Measured values taken from patent US20240301059A1 (PIONYR IMMUNOTHERAPEUTICS, published 2024).
Substitutions are numbered along the chain they refer to. One block for each binder: values may come before it.

Columns and labels:
[1] = molecular target: T1, mouse TREM2 on Expi 293 cells (mouse, UniProt Q99NH8 19-227); assay: flow cytometry on Expi 293 cells over-expressing mouse TREM2; Alexa Fluor 647 anti-Fc secondary
T1 construct: also called Expi-mTREM2; mTREM2
T1 sequence: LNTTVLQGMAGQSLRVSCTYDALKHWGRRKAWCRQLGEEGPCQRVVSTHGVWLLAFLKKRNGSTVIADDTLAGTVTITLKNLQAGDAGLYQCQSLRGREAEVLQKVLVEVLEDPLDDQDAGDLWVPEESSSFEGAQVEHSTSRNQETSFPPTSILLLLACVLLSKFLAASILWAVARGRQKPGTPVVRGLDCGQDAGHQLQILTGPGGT
Description: (§1) 100,000 to 500,000 Expi 293 parental cells or Expi 293 cells over-expressing human or mouse TREM2 were plated in 96 well plates and dead cells were stained with Zombie Near Infrared (Biolegend). Titrations of indicated unconjugated antibodies were incubated with these cells within a range of 0 ug/ml to 10 ug/ml in a 1:3 dilution range across 8-10 points. Dependent on their isotype (hIgG1 or mIgG2a), these primary unconjugated antibodies were detected with Alexa Fluor 647 conjugated anti-human Fc or anti-mouse Fc secondary antibodies (Jackson Immunoresearch). Alexa Fluor 647 signal was measured by flow cytometry (BD Fortessa X-14, BD Biosciences). EC50 values were calculated by curve fitting signal generated from antibodies binding to over-expressing cells over background fluorescence generated from HEK293 parental cells in Graphpad Prism (Graphpad Software).

[2] = molecular target: T2, TREM2 human IgG1 Fc fusion protein (human, UniProt Q9NZC2 19-174, limits assumed); assay: SPR, Biacore T200; TREM2-Fc amine-coupled to CM5 chip, antibody injected; 1:1 Langmuir fit
T2 construct: In-house, SEC purified to >95% purity; also called human TREM2-Fc; not shown: human IgG1 Fc
T2 sequence: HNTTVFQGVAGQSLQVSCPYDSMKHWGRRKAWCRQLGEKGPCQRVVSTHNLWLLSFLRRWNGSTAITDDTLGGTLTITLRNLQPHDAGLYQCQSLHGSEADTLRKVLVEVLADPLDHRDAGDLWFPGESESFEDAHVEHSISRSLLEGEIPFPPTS
Description: (§2) Binding kinetics were determined by surface plasmon resonance using a Biacore T200 (GE Healthcare, UK) with human TREM2 His (Sino Biological, Beijing, P.R.China) or […] captured on Series S CM5 chips through anti-His capture or TREM2 human IgG1 Fc fusion protein (in-house SEC purified to >95% purity) directly immobilized to chips by amine coupling. Serial dilutions of indicated antibodies were injected at 30 ul/minute for 2 minutes. PBS or system buffer was then injected at 30 ul/minute for 400 seconds to observe dissociation. Binding responses were corrected by subtraction of responses on a blank flow cell. For kinetic analysis, a 1:1 Langmuir model of global fittings of kₒₙ and koff values, was used. The Kd values were determined from the ratios of kₒₙ and koff.

[3] = molecular target: T3, human TREM2 on Expi 293 cells (human, UniProt Q9NZC2 19-230); assay: flow cytometry on Expi 293 cells over-expressing human TREM2; Alexa Fluor 647 anti-Fc secondary
T3 construct: also called Expi-hTREM2; hTREM2
T3 sequence: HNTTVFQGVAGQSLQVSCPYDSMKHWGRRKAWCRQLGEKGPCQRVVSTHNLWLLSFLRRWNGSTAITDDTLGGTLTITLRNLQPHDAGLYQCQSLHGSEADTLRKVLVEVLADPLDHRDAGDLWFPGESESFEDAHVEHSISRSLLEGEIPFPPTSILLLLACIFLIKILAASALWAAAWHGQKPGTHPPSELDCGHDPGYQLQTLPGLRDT
Description: as §1

[4] = molecular target: T4, human TREM2 His (Sino Biological) (human, UniProt Q9NZC2 19-174); assay: SPR, Biacore T200; TREM2-His captured on CM5 chip by anti-His, antibody injected; 1:1 Langmuir fit
T4 construct: Bought reagent; the soluble reagent is probably only the extracellular part; not shown: His tag
T4 sequence: T2 sequence
Description: as §2

B1: PI37012 (antibody, human IgG1, kappa, V domains shown)
VH: EVQLLESGGGLVQPGGSLRLSCAASGFTFSNYYMAWVRQAPGKGLEWVSSLTNSGGSTYYADSVKGRFTISRDNSKNTLYLQMNSLRAEDTAVYYCTREWAGSGYFDYWGQGTLVTVSS
VL: DIQMTQSPSSLSASVGDRVTITCKASQNVGNNLAWYQQKPGKAPKLLIYYTSNRFTGVPSRFSGSGSGTDFTLTISSLQPEDFATYYCQRIYNSPWTFGQGTKLEIKR
notes: Humanized anti-TREM2 antibody, human IgG1, produced in HEK293; also called 37012 antibody; PI37012 anti-TREM2 mAb
EC50 [1]: 0.5 nM

B2: PI37014 (antibody, human IgG1, kappa, V domains shown)
VH: B1 VH with S49A, I70L
VL: B1 VL
notes: Humanized anti-TREM2 antibody, human IgG1
Kd [2]: 1.55 nM | koff [2]: 0.000732 s⁻¹ | kon [2]: 471000 M⁻¹ s⁻¹ | EC50 [3]: 1.4 nM | Kd [4]: 4.74 nM | koff [4]: 0.00243 s⁻¹ | kon [4]: 511000 M⁻¹ s⁻¹

Results, then the binder that gave them:

Kd [2]: 1.72 nM | koff [2]: 0.000888 s⁻¹ | kon [2]: 517000 M⁻¹ s⁻¹ | EC50 [3]: 1.4 nM | EC50 [1]: 1.2 nM | Kd [4]: 4.82 nM | koff [4]: 0.00549 s⁻¹ | kon [4]: 1.14e+06 M⁻¹ s⁻¹
B3: PI37013 (antibody, human IgG1, kappa, V domains shown)
VH: B1 VH
VL: B1 VL with I21M, I48L, L78V, I106L
notes: as for B2

Kd [2]: 18 nM | koff [2]: 0.00614 s⁻¹ | kon [2]: 340000 M⁻¹ s⁻¹ | EC50 [3]: 23.3 nM | EC50 [1]: 3.6 nM
B4: PI37017 (antibody, human IgG1, kappa, V domains shown)
VH: B1 VH with T97A, R98K
VL: B1 VL
notes: Parent humanized clone, human IgG1; also called 37017 antibody
